This passage reports stoichiometry N results from publication PMC8827656.

Experiment [1] concerns the target photosystem I (PSI) complex from FRL-acclimated Chlorogloeopsis fritschii PCC 9212 (C. fritschii PCC 9212 (endogenous in the cells)). The experiment is described as follows: atomic force microscopy; thylakoid membrane patches from 20-50% sucrose gradients with 0.1% digitonin, adsorbed on mica; PeakForce mode under liquid; 10 mM Hepes pH 7.5, 100 mM KCl; oligomer assigned from heights, nearest-neighbour angles and lateral distances.

For experiment [2] the target is unchanged. Put plainly: sucrose gradient sedimentation + negative-stain TEM; thylakoid membranes solubilised with 1% DDM, 5-20% sucrose gradients with 0.05% DDM, 140,000g for 12-16 h at 4°C; bands negatively stained with uranyl acetate and imaged by TEM.
Experiment [3] concerns the target photosystem I (PSI) complex from white-light-grown Chlorogloeopsis fritschii PCC 9212 (C. fritschii PCC 9212 (endogenous in the cells)). The experiment is described as follows: atomic force microscopy; thylakoid membrane patches from 20-50% sucrose gradients with 0.1% digitonin, adsorbed on mica; PeakForce mode under liquid; 10 mM Hepes pH 7.5, 100 mM KCl; oligomer assigned from heights, nearest-neighbour angles and lateral distances.

For experiment [4] the target is unchanged. Put plainly: sucrose gradient sedimentation + negative-stain TEM; thylakoid membranes solubilised with 1% DDM, 5-20% sucrose gradients with 0.05% DDM, 140,000g for 12-16 h at 4°C; bands negatively stained with uranyl acetate and imaged by TEM.
The target in experiment [5] is photosystem I (PSI) complex from FRL-acclimated Synechococcus sp. PCC 7335 (Synechococcus sp. PCC 7335 (endogenous in the cells)). Put plainly: atomic force microscopy; thylakoid membrane patches from 20-50% sucrose gradients with 0.1% digitonin, adsorbed on mica; PeakForce mode under liquid; 10 mM Hepes pH 7.5, 100 mM KCl; oligomer assigned from heights, nearest-neighbour angles and lateral distances.

The target is the same in experiment [6]. Put plainly: sucrose gradient sedimentation; thylakoid membranes solubilised with 1% DDM, 5-20% sucrose gradients with 0.05% DDM, 140,000g for 12-16 h at 4°C; bands assigned by position (fig. S3B), no TEM told.
The target of experiment [7] is photosystem II (PSII) complex from FRL-acclimated Chroococcidiopsis thermalis PCC 7203 (C. thermalis PCC 7203 (endogenous in the cells)). The experiment is described as follows: sucrose gradient sedimentation + negative-stain TEM; thylakoid membranes solubilised with 1% DDM, 5-20% sucrose gradients with 0.05% DDM, 140,000g for 12-16 h at 4°C; bands negatively stained with uranyl acetate and imaged by TEM.

Experiment [8] deals with photosystem I (PSI) complex from white-light-grown Chroococcidiopsis thermalis PCC 7203 (C. thermalis PCC 7203 (endogenous in the cells)). The experiment is described as follows: atomic force microscopy; thylakoid membrane patches from 20-50% sucrose gradients with 0.1% digitonin, adsorbed on mica; PeakForce mode under liquid; 10 mM Hepes pH 7.5, 100 mM KCl; oligomer assigned from heights, nearest-neighbour angles and lateral distances.

Experiment [9] has the same target. The experiment is described as follows: native gel or EMSA; BN-PAGE; thylakoid membranes solubilised with 0.4 or 2% DDM, 4-16% NativePAGE gels. (In general: In EMSA bound probe runs differently from free probe, usually more slowly.)
The target of experiment [10] is photosystem I (PSI) complex from white-light-grown Synechococcus sp. PCC 7335 (Synechococcus sp. PCC 7335 (endogenous in the cells)). Put plainly: atomic force microscopy; thylakoid membrane patches from 20-50% sucrose gradients with 0.1% digitonin, adsorbed on mica; PeakForce mode under liquid; 10 mM Hepes pH 7.5, 100 mM KCl; oligomer assigned from heights, nearest-neighbour angles and lateral distances.

The target is the same in experiment [11]. Put plainly: sucrose gradient sedimentation; thylakoid membranes solubilised with 1% DDM, 5-20% sucrose gradients with 0.05% DDM, 140,000g for 12-16 h at 4°C; bands assigned by position (fig. S3B), no TEM told.
For experiment [12] the target is unchanged. Put plainly: atomic force microscopy; thylakoid membrane patches from 20-50% sucrose gradients with 0.1% digitonin, adsorbed on mica; PeakForce mode under liquid; 10 mM Hepes pH 7.5, 100 mM KCl; oligomer assigned from heights, nearest-neighbour angles and lateral distances. The source holds these as a separate data set.
Experiment [13] addresses photosystem I (PSI) complex from FRL-acclimated Chroococcidiopsis thermalis PCC 7203 (C. thermalis PCC 7203 (endogenous in the cells)). Described as above.
Experiment [14] has the same target. Put plainly: sucrose gradient sedimentation + negative-stain TEM; thylakoid membranes solubilised with 1% DDM, 5-20% sucrose gradients with 0.05% DDM, 140,000g for 12-16 h at 4°C; bands negatively stained with uranyl acetate and imaged by TEM.
The target is the same in experiment [15]. Put plainly: native gel or EMSA; BN-PAGE; thylakoid membranes solubilised with 0.4 or 2% DDM, 4-16% NativePAGE gels.

Where “and” joins values, the source holds several entries; their conditions need not be identical. Equal entries are not always repeated.

As to “photosystem I (PSI) complex from FRL-acclimated Chlorogloeopsis fritschii PCC 9212”, the stoichiometry N in experiment [1] and in experiment [2] was 3 each time.

Consider “photosystem I (PSI) complex from white-light-grown Chlorogloeopsis fritschii PCC 9212”, for which the stoichiometry N was 2 in experiment [3]; 4 and 2 in experiment [4].

Take “photosystem I (PSI) complex from FRL-acclimated Synechococcus sp. PCC 7335”: the stoichiometry N in [5] was 3; in experiment [6] it was 3 and 2.

With “photosystem II (PSII) complex from FRL-acclimated Chroococcidiopsis thermalis PCC 7203”, the stoichiometry N in [7] was found to be 2.

As for “photosystem I (PSI) complex from white-light-grown Chroococcidiopsis thermalis PCC 7203”, the stoichiometry N in experiment [8] and in experiment [9] was 2 in each case.

With “photosystem I (PSI) complex from white-light-grown Synechococcus sp. PCC 7335”, the stoichiometry N was 2 in [10]; 2 and 3 and 4 in [11]; 3 in [12].

With “photosystem I (PSI) complex from FRL-acclimated Chroococcidiopsis thermalis PCC 7203”, the stoichiometry N in experiment [13] was 3; in [14], 3 and 2; in [15] it was 3.

Usually stoichiometry N stands for the number of molecules, sites or subunits per partner or assembly.
